According to patent publication US20250042956A1:

Columns and labels:
[1] = target: AT1G22950.1 ICU11 (Arabidopsis thaliana) (UniProt Q3ED68); assay: IP-MS rep 1
[2] = target: AT3G10490.2 NAC052 (Arabidopsis thaliana) (UniProt Q9SQY0); assay: IP-MS rep 1
[3] = target: T1, AT4G02020.1 SWN (Arabidopsis thaliana) (UniProt Q9ZSM8); assay: IP-MS rep 1
T1 sequence (looked up): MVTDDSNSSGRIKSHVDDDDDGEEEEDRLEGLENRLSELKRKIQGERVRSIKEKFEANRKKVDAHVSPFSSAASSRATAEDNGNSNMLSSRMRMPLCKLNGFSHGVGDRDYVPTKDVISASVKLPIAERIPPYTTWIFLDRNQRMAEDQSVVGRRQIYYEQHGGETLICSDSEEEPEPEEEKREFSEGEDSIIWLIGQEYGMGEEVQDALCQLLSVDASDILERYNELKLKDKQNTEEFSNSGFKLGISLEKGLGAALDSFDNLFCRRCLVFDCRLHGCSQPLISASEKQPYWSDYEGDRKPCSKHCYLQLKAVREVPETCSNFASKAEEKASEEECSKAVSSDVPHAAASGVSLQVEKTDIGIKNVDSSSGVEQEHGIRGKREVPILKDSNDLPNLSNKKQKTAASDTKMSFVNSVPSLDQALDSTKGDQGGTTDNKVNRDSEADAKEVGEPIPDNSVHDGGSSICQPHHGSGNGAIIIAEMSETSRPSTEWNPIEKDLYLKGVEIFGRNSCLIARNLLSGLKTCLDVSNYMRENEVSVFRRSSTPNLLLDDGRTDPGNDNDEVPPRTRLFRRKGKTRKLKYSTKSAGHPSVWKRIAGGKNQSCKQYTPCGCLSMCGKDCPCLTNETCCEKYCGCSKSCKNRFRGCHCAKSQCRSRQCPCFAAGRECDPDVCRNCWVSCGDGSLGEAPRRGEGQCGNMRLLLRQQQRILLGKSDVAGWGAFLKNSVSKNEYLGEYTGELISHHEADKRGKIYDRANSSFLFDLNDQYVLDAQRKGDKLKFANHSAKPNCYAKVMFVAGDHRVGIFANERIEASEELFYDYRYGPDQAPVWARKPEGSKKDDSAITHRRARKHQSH

[4] = target: AT4G20400.1 JMJ14 (Arabidopsis thaliana) (UniProt Q8GUI6); assay: IP-MS rep 1
[5] = target: AT4G38130.1 HDA19 (Arabidopsis thaliana) (UniProt O22446); assay: IP-MS rep 1
[6] = target: AT5G11530.1 EMF1 (Arabidopsis thaliana) (UniProt Q9LYD9); assay: IP-MS rep 1
[7] = target: AT5G58230.1 MSI1 (Arabidopsis thaliana) (UniProt O22467); assay: IP-MS rep 1
[8] = target: AT5G63110.1 HDA6 (Arabidopsis thaliana) (UniProt Q9FML2); assay: IP-MS rep 1
[9] = target: AT1G22950.1 ICU11 (Arabidopsis thaliana) (UniProt Q3ED68); assay: IP-MS rep 2
[10] = target: AT3G10490.2 NAC052 (Arabidopsis thaliana) (UniProt Q9SQY0); assay: IP-MS rep 2
[11] = target: T1, AT4G02020.1 SWN (Arabidopsis thaliana); assay: IP-MS rep 2
[12] = target: AT4G20400.1 JMJ14 (Arabidopsis thaliana) (UniProt Q8GUI6); assay: IP-MS rep 2
[13] = target: AT4G38130.1 HDA19 (Arabidopsis thaliana) (UniProt O22446); assay: IP-MS rep 2
[14] = target: AT5G11530.1 EMF1 (Arabidopsis thaliana) (UniProt Q9LYD9); assay: IP-MS rep 2
[15] = target: AT5G58230.1 MSI1 (Arabidopsis thaliana) (UniProt O22467); assay: IP-MS rep 2
[16] = target: AT5G63110.1 HDA6 (Arabidopsis thaliana) (UniProt Q9FML2); assay: IP-MS rep 2
[17] = target: AT1G49950.3 TRB1 (Arabidopsis thaliana) (UniProt Q8VWK4); assay: IP-MS rep 1
[18] = target: AT2G23380.1 CLF (Arabidopsis thaliana) (UniProt P93831); assay: IP-MS rep 1
[19] = target: AT3G10480.3 NAC050 (Arabidopsis thaliana) (UniProt Q9SQX9); assay: IP-MS rep 1
[20] = target: AT3G18210.1 CP2 (Arabidopsis thaliana) (UniProt P0DO23); assay: IP-MS rep 1
[21] = target: AT3G20740.1 FIE (Arabidopsis thaliana) (UniProt Q9LT47); assay: IP-MS rep 1
[22] = target: T2, AT5G17690.1 LHP1 (Arabidopsis thaliana) (UniProt Q946J8); assay: IP-MS rep 1
T2 sequence: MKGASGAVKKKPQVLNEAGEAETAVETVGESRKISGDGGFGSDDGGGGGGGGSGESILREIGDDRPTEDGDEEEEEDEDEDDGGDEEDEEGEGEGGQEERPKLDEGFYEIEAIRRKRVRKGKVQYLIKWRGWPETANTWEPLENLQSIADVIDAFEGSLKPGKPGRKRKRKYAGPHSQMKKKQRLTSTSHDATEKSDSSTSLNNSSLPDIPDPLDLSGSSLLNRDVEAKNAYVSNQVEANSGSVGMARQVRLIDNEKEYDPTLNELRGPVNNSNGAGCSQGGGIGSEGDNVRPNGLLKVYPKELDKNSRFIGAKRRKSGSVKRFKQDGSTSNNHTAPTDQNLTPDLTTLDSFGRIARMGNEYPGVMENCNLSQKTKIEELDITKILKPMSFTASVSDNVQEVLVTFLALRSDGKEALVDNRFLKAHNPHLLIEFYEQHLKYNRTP

[23] = target: AT5G51230.1 EMF2 (Arabidopsis thaliana) (UniProt Q8L6Y4); assay: IP-MS rep 1
[24] = target: AT1G49950.3 TRB1 (Arabidopsis thaliana) (UniProt Q8VWK4); assay: IP-MS rep 2
[25] = target: AT2G23380.1 CLF (Arabidopsis thaliana) (UniProt P93831); assay: IP-MS rep 2
[26] = target: AT3G10480.3 NAC050 (Arabidopsis thaliana) (UniProt Q9SQX9); assay: IP-MS rep 2
[27] = target: AT3G18210.1 CP2 (Arabidopsis thaliana) (UniProt P0DO23); assay: IP-MS rep 2
[28] = target: AT3G20740.1 FIE (Arabidopsis thaliana) (UniProt Q9LT47); assay: IP-MS rep 2
[29] = target: T2, AT5G17690.1 LHP1 (Arabidopsis thaliana); assay: IP-MS rep 2
[30] = target: AT5G51230.1 EMF2 (Arabidopsis thaliana) (UniProt Q8L6Y4); assay: IP-MS rep 2
[31] = target: AT1G22950.1 ICU11 (Arabidopsis thaliana) (UniProt Q3ED68); assay: X-link IP-MS
[32] = target: AT1G49950.3 TRB1 (Arabidopsis thaliana) (UniProt Q8VWK4); assay: X-link IP-MS
[33] = target: AT2G23380.1 CLF (Arabidopsis thaliana) (UniProt P93831); assay: X-link IP-MS
[34] = target: AT3G10480.3 NAC050 (Arabidopsis thaliana) (UniProt Q9SQX9); assay: X-link IP-MS
[35] = target: AT3G10490.2 NAC052 (Arabidopsis thaliana) (UniProt Q9SQY0); assay: X-link IP-MS
[36] = target: AT3G18210.1 CP2 (Arabidopsis thaliana) (UniProt P0DO23); assay: X-link IP-MS
[37] = target: AT3G20740.1 FIE (Arabidopsis thaliana) (UniProt Q9LT47); assay: X-link IP-MS
[38] = target: T1, AT4G02020.1 SWN (Arabidopsis thaliana); assay: X-link IP-MS
[39] = target: AT5G11530.1 EMF1 (Arabidopsis thaliana) (UniProt Q9LYD9); assay: X-link IP-MS
[40] = target: T2, AT5G17690.1 LHP1 (Arabidopsis thaliana); assay: X-link IP-MS
[41] = target: AT5G51230.1 EMF2 (Arabidopsis thaliana) (UniProt Q8L6Y4); assay: X-link IP-MS
[42] = target: AT5G58230.1 MSI1 (Arabidopsis thaliana) (UniProt O22467); assay: X-link IP-MS

AT2G23380.1 CLF (Arabidopsis thaliana), sequence (P93831 whole entry): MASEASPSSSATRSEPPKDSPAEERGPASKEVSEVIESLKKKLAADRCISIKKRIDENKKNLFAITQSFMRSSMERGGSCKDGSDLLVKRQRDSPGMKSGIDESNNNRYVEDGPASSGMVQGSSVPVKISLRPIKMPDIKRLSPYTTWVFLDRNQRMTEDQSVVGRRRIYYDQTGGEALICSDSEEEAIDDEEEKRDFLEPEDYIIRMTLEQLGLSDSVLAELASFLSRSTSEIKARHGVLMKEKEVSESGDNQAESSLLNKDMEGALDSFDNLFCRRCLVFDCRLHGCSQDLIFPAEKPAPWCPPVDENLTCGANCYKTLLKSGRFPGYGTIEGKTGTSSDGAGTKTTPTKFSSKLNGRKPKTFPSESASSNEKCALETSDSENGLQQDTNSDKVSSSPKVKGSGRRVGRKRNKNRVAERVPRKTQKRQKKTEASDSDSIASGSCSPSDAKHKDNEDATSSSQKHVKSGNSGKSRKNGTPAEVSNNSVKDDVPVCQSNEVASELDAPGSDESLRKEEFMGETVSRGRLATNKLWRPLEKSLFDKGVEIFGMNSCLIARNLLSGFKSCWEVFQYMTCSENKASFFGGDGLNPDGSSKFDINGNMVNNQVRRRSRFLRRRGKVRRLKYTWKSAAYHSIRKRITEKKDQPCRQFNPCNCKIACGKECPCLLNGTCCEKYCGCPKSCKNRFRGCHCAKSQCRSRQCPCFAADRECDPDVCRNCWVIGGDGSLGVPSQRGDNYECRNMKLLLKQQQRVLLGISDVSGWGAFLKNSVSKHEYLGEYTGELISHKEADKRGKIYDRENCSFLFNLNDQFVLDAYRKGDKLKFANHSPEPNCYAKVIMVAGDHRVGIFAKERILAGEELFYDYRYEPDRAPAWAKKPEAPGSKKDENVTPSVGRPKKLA
AT5G11530.1 EMF1 (Arabidopsis thaliana), sequence (Q9LYD9 whole entry): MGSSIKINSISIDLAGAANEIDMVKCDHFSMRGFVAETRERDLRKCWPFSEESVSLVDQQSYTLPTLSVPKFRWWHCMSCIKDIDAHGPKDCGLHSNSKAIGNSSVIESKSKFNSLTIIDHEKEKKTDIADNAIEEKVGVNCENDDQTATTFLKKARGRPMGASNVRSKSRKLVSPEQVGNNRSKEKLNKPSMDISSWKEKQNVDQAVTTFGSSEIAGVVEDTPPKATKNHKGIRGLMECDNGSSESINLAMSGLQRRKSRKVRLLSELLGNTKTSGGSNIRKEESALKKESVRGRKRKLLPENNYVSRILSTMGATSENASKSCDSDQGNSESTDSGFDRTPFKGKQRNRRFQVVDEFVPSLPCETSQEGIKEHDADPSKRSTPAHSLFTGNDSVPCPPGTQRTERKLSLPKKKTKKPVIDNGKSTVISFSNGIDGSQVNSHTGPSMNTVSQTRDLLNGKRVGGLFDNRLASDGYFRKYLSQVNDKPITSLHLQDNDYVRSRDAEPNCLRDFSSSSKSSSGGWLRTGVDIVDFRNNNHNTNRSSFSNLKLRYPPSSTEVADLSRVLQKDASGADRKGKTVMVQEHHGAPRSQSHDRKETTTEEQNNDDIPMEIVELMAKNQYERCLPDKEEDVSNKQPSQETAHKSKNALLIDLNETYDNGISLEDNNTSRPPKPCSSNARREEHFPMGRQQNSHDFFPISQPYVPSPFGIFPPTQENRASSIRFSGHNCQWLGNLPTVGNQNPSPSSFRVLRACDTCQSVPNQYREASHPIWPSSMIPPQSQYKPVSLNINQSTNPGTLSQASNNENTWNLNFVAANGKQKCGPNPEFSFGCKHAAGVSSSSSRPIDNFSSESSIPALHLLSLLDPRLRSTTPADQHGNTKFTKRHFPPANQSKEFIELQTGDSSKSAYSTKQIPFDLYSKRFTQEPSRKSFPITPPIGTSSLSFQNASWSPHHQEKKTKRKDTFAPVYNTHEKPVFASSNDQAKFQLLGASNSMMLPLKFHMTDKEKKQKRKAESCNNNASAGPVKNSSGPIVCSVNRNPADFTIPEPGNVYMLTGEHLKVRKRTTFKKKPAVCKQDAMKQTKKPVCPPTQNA
AT3G10490.2 NAC052 (Arabidopsis thaliana), sequence (Q9SQY0 whole entry): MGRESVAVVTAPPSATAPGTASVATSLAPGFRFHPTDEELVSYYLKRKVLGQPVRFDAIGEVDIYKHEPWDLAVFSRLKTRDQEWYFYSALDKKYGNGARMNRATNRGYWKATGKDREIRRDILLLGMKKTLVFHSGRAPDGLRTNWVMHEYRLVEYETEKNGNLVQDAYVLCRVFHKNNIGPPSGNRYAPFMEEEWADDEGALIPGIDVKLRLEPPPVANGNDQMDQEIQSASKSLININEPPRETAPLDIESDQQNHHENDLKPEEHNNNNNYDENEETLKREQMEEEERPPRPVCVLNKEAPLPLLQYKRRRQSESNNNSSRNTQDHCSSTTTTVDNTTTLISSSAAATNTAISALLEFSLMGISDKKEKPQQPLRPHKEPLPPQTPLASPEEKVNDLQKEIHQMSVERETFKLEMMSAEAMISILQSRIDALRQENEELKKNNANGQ
AT1G22950.1 ICU11 (Arabidopsis thaliana), sequence (Q3ED68 whole entry): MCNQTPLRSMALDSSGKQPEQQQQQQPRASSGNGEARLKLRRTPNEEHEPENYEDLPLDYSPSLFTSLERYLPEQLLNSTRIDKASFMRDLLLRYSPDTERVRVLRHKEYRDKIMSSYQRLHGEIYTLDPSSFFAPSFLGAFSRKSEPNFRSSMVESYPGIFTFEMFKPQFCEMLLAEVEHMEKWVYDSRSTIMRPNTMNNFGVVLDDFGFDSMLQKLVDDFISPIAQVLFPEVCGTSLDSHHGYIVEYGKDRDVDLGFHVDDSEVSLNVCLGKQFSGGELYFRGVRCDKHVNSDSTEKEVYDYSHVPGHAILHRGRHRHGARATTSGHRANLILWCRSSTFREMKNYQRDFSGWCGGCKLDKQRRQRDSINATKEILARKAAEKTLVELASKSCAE
AT3G18210.1 CP2 (Arabidopsis thaliana), sequence (P0DO23 whole entry): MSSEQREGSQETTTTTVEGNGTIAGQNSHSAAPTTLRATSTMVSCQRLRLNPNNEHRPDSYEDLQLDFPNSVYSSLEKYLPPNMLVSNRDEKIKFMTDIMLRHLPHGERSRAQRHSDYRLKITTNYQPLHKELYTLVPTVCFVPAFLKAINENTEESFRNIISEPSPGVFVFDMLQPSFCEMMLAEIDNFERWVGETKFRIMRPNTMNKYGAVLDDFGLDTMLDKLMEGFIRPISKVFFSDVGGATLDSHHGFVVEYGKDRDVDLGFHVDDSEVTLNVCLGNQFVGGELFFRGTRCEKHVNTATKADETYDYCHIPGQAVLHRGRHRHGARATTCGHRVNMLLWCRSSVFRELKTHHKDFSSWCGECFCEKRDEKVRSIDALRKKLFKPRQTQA
AT5G58230.1 MSI1 (Arabidopsis thaliana), sequence (O22467 whole entry): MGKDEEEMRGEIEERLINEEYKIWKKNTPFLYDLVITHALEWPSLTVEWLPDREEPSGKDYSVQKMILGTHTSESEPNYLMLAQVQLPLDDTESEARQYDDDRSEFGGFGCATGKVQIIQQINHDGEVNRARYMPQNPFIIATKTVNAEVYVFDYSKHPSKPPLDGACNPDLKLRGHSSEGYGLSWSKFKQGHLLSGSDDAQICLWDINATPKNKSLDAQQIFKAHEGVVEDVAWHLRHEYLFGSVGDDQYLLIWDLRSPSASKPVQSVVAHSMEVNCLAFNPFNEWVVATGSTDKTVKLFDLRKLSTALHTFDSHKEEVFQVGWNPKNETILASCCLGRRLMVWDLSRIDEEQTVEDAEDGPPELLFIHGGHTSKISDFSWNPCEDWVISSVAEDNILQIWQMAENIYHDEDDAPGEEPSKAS
AT3G10480.3 NAC050 (Arabidopsis thaliana), sequence (Q9SQX9 whole entry): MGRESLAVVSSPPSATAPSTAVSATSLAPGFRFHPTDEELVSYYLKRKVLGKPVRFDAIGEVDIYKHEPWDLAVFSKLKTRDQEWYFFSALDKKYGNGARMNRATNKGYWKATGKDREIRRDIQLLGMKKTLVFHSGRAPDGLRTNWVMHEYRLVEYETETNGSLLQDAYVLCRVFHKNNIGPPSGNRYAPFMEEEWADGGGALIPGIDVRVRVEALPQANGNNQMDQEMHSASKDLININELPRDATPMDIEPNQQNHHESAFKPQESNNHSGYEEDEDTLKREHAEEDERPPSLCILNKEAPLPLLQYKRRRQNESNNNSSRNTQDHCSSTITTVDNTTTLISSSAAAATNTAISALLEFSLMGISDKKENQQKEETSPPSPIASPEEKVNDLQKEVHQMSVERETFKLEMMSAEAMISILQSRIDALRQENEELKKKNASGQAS
AT1G49950.3 TRB1 (Arabidopsis thaliana), sequence (Q8VWK4 whole entry): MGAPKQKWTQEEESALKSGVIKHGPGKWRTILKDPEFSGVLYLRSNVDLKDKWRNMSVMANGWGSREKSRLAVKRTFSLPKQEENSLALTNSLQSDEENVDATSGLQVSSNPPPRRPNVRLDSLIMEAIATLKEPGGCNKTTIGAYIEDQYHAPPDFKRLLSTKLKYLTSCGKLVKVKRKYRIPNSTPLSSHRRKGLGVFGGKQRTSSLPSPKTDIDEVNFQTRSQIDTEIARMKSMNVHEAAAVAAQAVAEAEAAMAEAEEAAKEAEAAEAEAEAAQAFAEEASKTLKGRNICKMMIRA
AT3G20740.1 FIE (Arabidopsis thaliana), sequence (Q9LT47 whole entry): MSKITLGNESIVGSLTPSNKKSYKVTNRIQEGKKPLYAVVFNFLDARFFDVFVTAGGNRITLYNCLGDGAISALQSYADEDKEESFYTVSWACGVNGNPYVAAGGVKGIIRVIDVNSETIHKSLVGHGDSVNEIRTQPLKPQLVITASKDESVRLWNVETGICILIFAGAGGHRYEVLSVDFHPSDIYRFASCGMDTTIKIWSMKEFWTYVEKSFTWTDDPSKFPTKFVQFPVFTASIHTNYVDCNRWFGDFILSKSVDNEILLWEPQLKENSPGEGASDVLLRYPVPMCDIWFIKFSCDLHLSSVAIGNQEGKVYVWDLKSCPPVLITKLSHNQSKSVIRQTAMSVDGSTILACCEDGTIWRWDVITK

## TRBIP2 (bait of the TRBIP2 IP-MS)
[1]
  IP-MS count: 16
[2]
  IP-MS count: 4
[3]
  IP-MS count: 3
[4]
  IP-MS count: 3
[5]
  IP-MS count: 4
[6]
  IP-MS count: 4
[7]
  IP-MS count: 3
[8]
  IP-MS count: 10
[9]
  IP-MS count: 4
[10]
  IP-MS count: 0
[11]
  IP-MS count: 0
[12]
  IP-MS count: 0
[13]
  IP-MS count: 1
[14]
  IP-MS count: 0
[15]
  IP-MS count: 0
[16]
  IP-MS count: 3

## FLAG-TRB2 (from UniProt Q9FJW5 1-299)
[1]
  IP-MS count: 53
[17]
  IP-MS count: 0
[18]
  IP-MS count: 5
[19]
  IP-MS count: 1
[2]
  IP-MS count: 11
[20]
  IP-MS count: 4
[21]
  IP-MS count: 30
[3]
  IP-MS count: 11
[6]
  IP-MS count: 55
[22]
  IP-MS count: 15
[23]
  IP-MS count: 10
[7]
  IP-MS count: 26
[9]
  IP-MS count: 50
[24]
  IP-MS count: 4
[25]
  IP-MS count: 5
[26]
  IP-MS count: 1
[10]
  IP-MS count: 22
[27]
  IP-MS count: 5
[28]
  IP-MS count: 28
[11]
  IP-MS count: 12
[14]
  IP-MS count: 56
[29]
  IP-MS count: 15
[30]
  IP-MS count: 15
[15]
  IP-MS count: 21
[31]
  IP-MS count: 33
[32]
  IP-MS count: 10
[33]
  IP-MS count: 15
[34]
  IP-MS count: 39
[35]
  IP-MS count: 55
[36]
  IP-MS count: 17
[37]
  IP-MS count: 35
[38]
  IP-MS count: 33
[39]
  IP-MS count: 90
[40]
  IP-MS count: 17
[41]
  IP-MS count: 27
[42]
  IP-MS count: 30
